In doi:10.1101/2021.11.29.470395 (bioRxiv, 2021):

Legend:
[1] = target: the molecule itself; assay: right angle light scattering at 350 nm
[2] = target: the molecule itself; assay: right angle light scattering at 350 nm; full-length SaFtsZf (49 µM) or EcFtsZ (25 µM), 1 mM GTP with or without BeF3-, 10 mM MgCl2; MES assembly buffer, 25 °C

| Protein | binding result [1] | binding result [2] |
| --- | --- | --- |
| full-length FtsZ from methicillin-resistant S. aureus Mu50/ATCC 700699 (natural protein) MLEFEQGFNHLATLKVIGVGGGGNNAVNRMIDHGMNNVEFIAINTDGQALNLSKAESKIQIGEKLTRGLGAGANPEIGKKAAEESREQIEDAIQGADMVFVTSGMGGGTGTGAAPVVAKIAKEMGALTVGVVTRPFSFEGRKRQTQAAAGVEAMKAAVDTLIVIPNDRLLDIVDKSTPMMEAFKEADNVLRQGVQGISDLIAVSGEVNLDFADVKTIMSNQGSALMGIGVSSGENRAVEAAKKAISSPLLETSIVGAQGVLMNITGGESLSLFEAQEAADIVQDAADEDVNMIFGTVINPELQDEIVVTVIATGFDDKPTSHGRKSGSTGFGTSVNTSSNATSKDESFTSNSSNAQATDSVSERTHTTKEDDIPSFIRNREERRSRRTRR | binds | – |
| full-length FtsZ from E. coli (natural protein, Escherichia coli, UniProt P0A9A6 1-383, looked up, FtsZ of Escherichia coli, full length, wild type protein; also called EcFtsZ; source: purified as described [48]) MFEPMELTNDAVIKVIGVGGGGGNAVEHMVRERIEGVEFFAVNTDAQALRKTAVGQTIQIGSGITKGLGAGANPEVGRNAADEDRDALRAALEGADMVFIAAGMGGGTGTGAAPVVAEVAKDLGILTVAVVTKPFNFEGKKRMAFAEQGITELSKHVDSLITIPNDKLLKVLGRGISLLDAFGAANDVLKGAVQGIAELITRPGLMNVDFADVRTVMSEMGYAMMGSGVASGEDRAEEAAEMAISSPLLEDIDLSGARGVLVNITAGFDLRLDEFETVGNTIRAFASDNATVVIGTSLDPDMNDELRVTVVATGIGMDKRPEITLVTNKQVQQPVMDRYQQHGMAPLTQEQKPVAKVVNDNAPQTAKEPDYLDIPAFLRKQAD | – | binds |
